Here are results for one molecule from publication PMC10071816 (bioRxiv, 2023).

In experiment [1] the target is T1, CCT2, subunit of human TRiC (human, UniProt P78371 1-535).
T1 sequence: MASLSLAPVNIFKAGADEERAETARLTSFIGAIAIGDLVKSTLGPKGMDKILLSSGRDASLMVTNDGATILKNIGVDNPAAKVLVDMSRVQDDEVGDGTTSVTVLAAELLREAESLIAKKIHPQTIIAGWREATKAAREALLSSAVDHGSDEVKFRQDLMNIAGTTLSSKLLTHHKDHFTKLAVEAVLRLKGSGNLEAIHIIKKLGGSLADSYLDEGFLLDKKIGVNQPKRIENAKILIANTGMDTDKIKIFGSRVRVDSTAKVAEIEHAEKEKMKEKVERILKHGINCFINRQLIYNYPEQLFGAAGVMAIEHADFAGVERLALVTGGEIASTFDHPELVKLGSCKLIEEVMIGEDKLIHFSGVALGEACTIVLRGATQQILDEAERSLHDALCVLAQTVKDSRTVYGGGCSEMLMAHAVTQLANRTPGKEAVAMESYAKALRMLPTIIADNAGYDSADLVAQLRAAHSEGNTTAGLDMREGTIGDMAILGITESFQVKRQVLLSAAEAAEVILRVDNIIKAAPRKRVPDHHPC
Nature of the experiment: cross-linking.

The target of experiment [2] is CCT1, subunit of human TRiC (human, UniProt P17987 1-556). Nature of the experiment: cross-linking.
CCT1, subunit of human TRiC, sequence (P17987 whole entry): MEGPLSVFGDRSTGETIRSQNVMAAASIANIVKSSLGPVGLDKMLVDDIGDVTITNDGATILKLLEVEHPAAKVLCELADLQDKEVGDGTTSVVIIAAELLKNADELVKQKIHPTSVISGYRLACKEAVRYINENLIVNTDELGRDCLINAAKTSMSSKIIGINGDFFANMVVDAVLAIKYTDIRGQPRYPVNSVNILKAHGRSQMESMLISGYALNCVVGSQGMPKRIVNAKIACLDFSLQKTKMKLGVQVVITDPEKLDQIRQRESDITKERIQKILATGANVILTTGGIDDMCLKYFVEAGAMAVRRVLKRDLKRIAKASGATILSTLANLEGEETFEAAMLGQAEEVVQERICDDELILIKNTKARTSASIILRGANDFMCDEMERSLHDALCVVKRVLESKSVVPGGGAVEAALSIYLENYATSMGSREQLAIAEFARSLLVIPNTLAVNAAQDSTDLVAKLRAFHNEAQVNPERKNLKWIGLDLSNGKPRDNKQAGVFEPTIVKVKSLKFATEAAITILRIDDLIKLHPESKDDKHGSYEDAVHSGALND
Experiment [3] concerns the target human chaperonin TCP-1 ring complex (TRiC/CCT) (human) (UniProt P17987). Nature of the experiment: cryo-EM structure.
For experiment [4], the target named is CCT5, subunit of human TRiC (human, UniProt P48643 1-541). Description: cryo-EM structure.
CCT5, subunit of human TRiC, sequence (P48643 whole entry): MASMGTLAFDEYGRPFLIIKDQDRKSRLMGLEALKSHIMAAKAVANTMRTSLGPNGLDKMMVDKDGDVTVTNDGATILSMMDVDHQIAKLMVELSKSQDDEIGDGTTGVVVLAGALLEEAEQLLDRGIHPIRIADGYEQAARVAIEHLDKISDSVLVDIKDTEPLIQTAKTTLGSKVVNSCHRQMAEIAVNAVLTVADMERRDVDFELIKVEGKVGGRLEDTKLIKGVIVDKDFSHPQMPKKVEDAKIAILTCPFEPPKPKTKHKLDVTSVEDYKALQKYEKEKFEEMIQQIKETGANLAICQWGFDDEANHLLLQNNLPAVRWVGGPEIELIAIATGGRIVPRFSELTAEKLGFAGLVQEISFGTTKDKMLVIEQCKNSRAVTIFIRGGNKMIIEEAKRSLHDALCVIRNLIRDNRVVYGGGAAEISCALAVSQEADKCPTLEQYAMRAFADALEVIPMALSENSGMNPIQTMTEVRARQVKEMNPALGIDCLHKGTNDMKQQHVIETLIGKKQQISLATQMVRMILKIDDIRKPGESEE

B1: phosducin-like protein PhLP2A, full length (natural protein)
chain: MQDPNADTEWNDILRKKGILPPKESLKELEEEAEEEQRILQQSVVKTYEDMTLEELEDHEDEFNEEDERAIEMYRRRRLAEWKATKLKNKFGEVLEISGKDYVQEVTKAGEGLWVILHLYKQGIPLCALINQHLSGLARKFPDVKFIKAISTTCIPNYPDRNLPTIFVYLEGDIKAQFIGPLVFGGMNLTRDELEWKLSESGAIMTDLEENPKKPIEDVLLSSVRRSVLMKRDSDSEGD
On to B1, for which the binding result in experiment [1], in experiment [2] and in experiment [4] was “binds” in each case. This molecule also displayed a percent of particles (3D classification) in experiment [3] of 22.9%. Besides, the percent of particles with PhLP2A in both chambers in experiment [3] amounted to 9.5%. The molecule further registered a percent of particles with PhLP2A in one chamber in experiment [3] of 14%.
